This data set concerns the target T1, IFNα2b[Tn]-FCHASE.
T1 chain: VGVTETP

B1: CgtB11168 (FL, N-terminal MalE) (protein)
chain: MSQISIILPTYNVEKYIARALESCINQTFKDIEIIVVDDCGNDKSIDIAKEYASKDDRIKIIHNEENLKLLRARYEGAKVATSPYIMFLDSDDYLELNACEECIKILDMGGGGKIDLLCFEAFITNAKKSIKKLNIKQGKYNNKEFTMQILKTKNPFWTMWAKIIKKDIYLKAFNMLNLKKEIKINMAEDALLYYPLTILSNEIFYLTQPLYTQHVNSNSITNNINSLEANIQEHKIVLNVLKSIKNKKTPLYFLIIYLLKIQLLKYEQNFNKRNINLIYYKINILYQKYQFKWKKFLYNLIP
Take B1: the “conversion of the glycopeptide acceptor by capillary electrophoresis” value was “ND^2 (For the CgtB enzyme from the 11168 only very low-level conversion was detectable on the glycopeptide acceptor by capillary electrophoresis <5%.)”.

B2: CgtBOH4384 (FL, N-terminal MalE) (protein)
chain: MFKISIILPTYNVEQYIARAIESCINQTFKDIEIIVVDDCGNDNSINIAKEYSKKDKRIKIIHNEKNLGLLRARYEGVKVANSPYIMFLDPDDYLELNACEECIKILDEQDEVDLVFFNAIVESNVISYKKFDFNSGFYSKKEFVKKIIAKKNLYWTMWGKLIRKKLYLEAFASLRLEKDVKINMAEDVLLYYPMLSQAQKIAYMNCNLYHYVPNNNSICNTKNEVLVKNNIQELQLVLNYLRQNYILNKYCSVLYVLIKYLLYIQIYKIKRTKLMVTLLAKINILTLKILFKYKKFLKQC
Take B2: the Specific Activity (mU/mg) on 1 mM IFNα2b[Tn]-FCHASE was found to be 83.5 mU/mg.

Values taken from patent US20110111454.
